In publication PMC6745501 (2019):
Like-named read-outs stand apart in the source and are kept apart here.

B5: Arabidopsis COP1^349–675 WD40 domain (domain or fragment)
chain: TFTRYSRLRVIAEIRHGDIFHSANIVSSIEFDRDDELFATAGVSRCIKVFDFSSVVNEPADMQCPIVEMSTRSKLSCLSWNKHEKNHIASSDYEGIVTVWDVTTRQSLMEYEEHEKRAWSVDFSRTEPSMLVSGSDDCKVKVWCTRQEASVINIDMKANICCVKYNPGSSNYIAVGSADHHIHYYDLRNISQPLHVFSGHKKAVSYVKFLSNNELASASTDSTLRLWDVKDNLPVRTFRGHTNEKNFVGLTVNSEYLACGSETNEVYVYHKEITRPVTSHRFGSPDMDDAEEEAGSYFISAVCWKSDSPTMLTANSQGTIKVLVLAA

Assays:
[1] = molecular target: B5
[2] = molecular target: B5
[3] = molecular target: T1, COP1^349–675,Lys422Ala WD40 domain (Arabidopsis, UniProt P43254 349-675, Lys422Ala); assay: ITC
T1 sequence: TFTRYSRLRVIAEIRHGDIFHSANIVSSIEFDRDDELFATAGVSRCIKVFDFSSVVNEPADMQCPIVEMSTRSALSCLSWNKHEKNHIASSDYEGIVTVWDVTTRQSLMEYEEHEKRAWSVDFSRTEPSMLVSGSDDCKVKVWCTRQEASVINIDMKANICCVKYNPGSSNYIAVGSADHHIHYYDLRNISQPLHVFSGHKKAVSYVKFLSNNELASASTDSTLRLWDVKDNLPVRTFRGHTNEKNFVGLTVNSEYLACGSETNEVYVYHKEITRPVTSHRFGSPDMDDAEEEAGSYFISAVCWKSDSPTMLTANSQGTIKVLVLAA

[4] = molecular target: B5; assay: ITC
[5] = molecular target: B5; assay: ITC
[6] = molecular target: T2, COP1^Tyr441Ala WD40 domain (Arabidopsis, UniProt P43254 349-675, Tyr441Ala); assay: ITC
T2 sequence: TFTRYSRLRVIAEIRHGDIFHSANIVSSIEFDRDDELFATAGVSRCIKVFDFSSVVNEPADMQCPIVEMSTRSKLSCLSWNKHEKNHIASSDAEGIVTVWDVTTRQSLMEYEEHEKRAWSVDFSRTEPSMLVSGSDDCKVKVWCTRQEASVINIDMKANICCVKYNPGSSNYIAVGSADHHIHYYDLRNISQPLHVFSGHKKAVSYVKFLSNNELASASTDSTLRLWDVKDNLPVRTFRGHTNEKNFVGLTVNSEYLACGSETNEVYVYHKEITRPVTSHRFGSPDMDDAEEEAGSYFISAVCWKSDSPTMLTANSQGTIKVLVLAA

[7] = molecular target: T1, COP1^349–675,Lys422Ala WD40 domain; assay: ITC; remark: listed apart in the source
[8] = molecular target: B5; assay: ITC
[9] = molecular target: T3, UVR8^ValPro/AlaAla (recombinant) (Arabidopsis, UniProt Q9FN03 1-440, ValPro/AlaAla)
T3 sequence: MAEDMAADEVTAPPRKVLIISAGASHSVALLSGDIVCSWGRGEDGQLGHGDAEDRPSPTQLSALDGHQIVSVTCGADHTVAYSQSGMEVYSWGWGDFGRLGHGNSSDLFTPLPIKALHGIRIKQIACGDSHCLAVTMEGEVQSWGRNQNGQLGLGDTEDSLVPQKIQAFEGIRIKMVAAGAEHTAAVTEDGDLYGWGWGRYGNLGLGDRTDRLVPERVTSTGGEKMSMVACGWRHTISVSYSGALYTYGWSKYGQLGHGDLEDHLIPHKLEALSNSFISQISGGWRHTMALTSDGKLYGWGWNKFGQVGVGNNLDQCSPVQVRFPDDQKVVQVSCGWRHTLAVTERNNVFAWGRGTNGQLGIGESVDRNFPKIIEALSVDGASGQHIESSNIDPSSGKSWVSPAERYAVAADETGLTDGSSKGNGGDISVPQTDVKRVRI

[10] = molecular target: UVR8^HY5C44 chimera (recombinant) (Arabidopsis, UniProt Q9FN03); assay: UV-B-activated chimera
[11] = molecular target: B5
[12] = molecular target: B5

B1: UVR8^TRIB1VP chimera (recombinant) (other)
chain: MAEDMAADEVTAPPRKVLIISAGASHSVALLSGDIVCSWGRGEDGQLGHGDAEDRPSPTQLSALDGHQIVSVTCGADHTVAYSQSGMEVYSWGWGDFGRLGHGNSSDLFTPLPIKALHGIRIKQIACGDSHCLAVTMEGEVQSWGRNQNGQLGLGDTEDSLVPQKIQAFEGIRIKMVAAGAEHTAAVTEDGDLYGWGWGRYGNLGLGDRTDRLVPERVTSTGGEKMSMVACGWRHTISVSYSGALYTYGWSKYGQLGHGDLEDHLIPHKLEALSNSFISQISGGWRHTMALTSDGKLYGWGWNKFGQVGVGNNLDQCSPVQVRFPDDQKVVQVSCGWRHTLAVTERNNVFAWGRGTNGQLGIGESVDRNFPKIIEALSVDGASGQHIESSNIDPSSGKSWVSPAESDQIVPEY
- Kd [1]: 0.093 µM
- koff [2]: 0.0319 s⁻¹

B2: COL3^287–294 VP peptide (peptide)
peptide: GFGVVPSF
- Kd [3]: 7.8 µM
- Kd [4]: 39 µM

B3: TRIB1 VP peptide (peptide)
chain: SDQIVPEY
- Kd [5]: 1.6 µM

B4: HY5^39–48 VP peptide (peptide)
peptide: EIRRVPEFGG
- Kd [6]: 230 µM
- Kd [7]: 23 µM
- Kd [8]: 23 µM

Binder: B5
- Kd [9]: 2.2 µM
- Kd [10]: 0.269 µM

B6: CO^366–373 VP peptide (peptide)
peptide: GYGIVPSF
- Kd [3]: 21 µM
- Kd [4]: 74 µM

B7: full‐length HY5 protein (recombinant) (natural protein)
chain: MQEQATSSLAASSLPSSSERSSSSAPHLEIKEGIESDEEIRRVPEFGGEAVGKETSGRESGSATGQERTQATVGESQRKRGRTPAEKENKRLKRLLRNRVSAQQARERKKAYLSELENRVKDLENKNSELEERLSTLQNENQMLRHILKNTTGNKRGGGGGSNADASL
- koff [11]: 0.0832 s⁻¹
- Kd [12]: 1.2 µM

B8: UVR8^406–413 VP peptide (peptide)
peptide: RYAVVPDE
- Kd [7]: 16 µM
- Kd [8]: 190 µM

B9: CRY1^544–552 VP peptide (peptide)
peptide: EDQMVPSIT
- Kd [3]: 76 µM
- Kd [4]: 3 µM

B10: UVR8^HY5VP chimera (recombinant) (other)
chain: MAEDMAADEVTAPPRKVLIISAGASHSVALLSGDIVCSWGRGEDGQLGHGDAEDRPSPTQLSALDGHQIVSVTCGADHTVAYSQSGMEVYSWGWGDFGRLGHGNSSDLFTPLPIKALHGIRIKQIACGDSHCLAVTMEGEVQSWGRNQNGQLGLGDTEDSLVPQKIQAFEGIRIKMVAAGAEHTAAVTEDGDLYGWGWGRYGNLGLGDRTDRLVPERVTSTGGEKMSMVACGWRHTISVSYSGALYTYGWSKYGQLGHGDLEDHLIPHKLEALSNSFISQISGGWRHTMALTSDGKLYGWGWNKFGQVGVGNNLDQCSPVQVRFPDDQKVVQVSCGWRHTLAVTERNNVFAWGRGTNGQLGIGESVDRNFPKIIEALSVDGASGQHIESSNIDPSSGKSWVSPAEEIRRVPEFTGLTDGSSKGNGGDISVPQTDVKRVRI
- Kd [1]: 0.069 µM
- koff [2]: 0.0532 s⁻¹

B11: CRY2^527–535 VP peptide (peptide)
peptide: NDQQVPSAV
- Kd [3]: 560 µM
- Kd [4]: 21 µM
